Source: the supplement of paper PMC10567573

B1: FEM1A (parent)
chain: NIVEYLIQEQPGQEQVAGGEAQPG
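Further: lentivirally expressed fusions sorted by FACS into six bins by GFP to DsRed ratio, PSI derived from sequencing read proportions per bin multiplied by bin number.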

Variants of: B1
Test: protein stability index of a GFP-peptide fusion (GPS, HEK-293T) (PSI 1-6); higher = more stable
Conditions: c terminus: a fixed tail appended
NIVLYLIQEQPGQEQVAGGEAQPG [E4L] gave a protein stability index of 1.92. NIVYYLIQEQPGQEQVAGGEAQPG [E4Y] gave a protein stability index of 2.31. Variant NIVFYLIQEQPGQEQVAGGEAQPG [E4F] has a protein stability index of 2.4. With NIVSYLIQEQPGQEQVAGGEAQPG [E4S] the protein stability index was 3.64. Work on NIVQYLIQEQPGQEQVAGGEAQPG [E4Q] yielded a protein stability index of 3.95. In the case of NIVDYLIQEQPGQEQVAGGEAQPG [E4D], the protein stability index is reported as 4.79. With NIVRYLIQEQPGQEQVAGGEAQPG [E4R] the protein stability index was 3.48. Work on NIVTYLIQEQPGQEQVAGGEAQPG [E4T] yielded a protein stability index of 4.6. Work on NIVIYLIQEQPGQEQVAGGEAQPG [E4I] yielded a protein stability index of 1.86. For NIVGYLIQEQPGQEQVAGGEAQPG [E4G], the protein stability index was 4.16. In the case of NIVHYLIQEQPGQEQVAGGEAQPG [E4H], the protein stability index is reported as 3.56. Variant NIVKYLIQEQPGQEQVAGGEAQPG [E4K] has a protein stability index of 4.11. For NIVCYLIQEQPGQEQVAGGEAQPG [E4C], the protein stability index was 3.11. NIVPYLIQEQPGQEQVAGGEAQPG [E4P] gave a protein stability index of 4.76. With NIVNYLIQEQPGQEQVAGGEAQPG [E4N] the protein stability index was 4.22. Work on NIVAYLIQEQPGQEQVAGGEAQPG [E4A] yielded a protein stability index of 3.48. NIVVYLIQEQPGQEQVAGGEAQPG [E4V] showed a protein stability index of 1.82. NIVMYLIQEQPGQEQVAGGEAQPG [E4M] showed a protein stability index of 2. Work on NIVWYLIQEQPGQEQVAGGEAQPG [E4W] yielded a protein stability index of 2.52. For NIVEYHIQEQPGQEQVAGGEAQPG [L6H], the protein stability index was 5.61. In the case of NIVEYVIQEQPGQEQVAGGEAQPG [L6V], the protein stability index is reported as 5.11. NIVEYDIQEQPGQEQVAGGEAQPG [L6D] gave a protein stability index of 5.26. For NIVEYRIQEQPGQEQVAGGEAQPG [L6R], the protein stability index was 5.16. For NIVEYKIQEQPGQEQVAGGEAQPG [L6K], the protein stability index was 5.42. In the case of NIVEYTIQEQPGQEQVAGGEAQPG [L6T], the protein stability index is reported as 5.59. NIVEYCIQEQPGQEQVAGGEAQPG [L6C] showed a protein stability index of 5.11. Variant NIVEYWIQEQPGQEQVAGGEAQPG [L6W] has a protein stability index of 4.44. With NIVEYEIQEQPGQEQVAGGEAQPG [L6E] the protein stability index was 5.82. Variant NIVEYSIQEQPGQEQVAGGEAQPG [L6S] has a protein stability index of 5.45. Work on NIVEYNIQEQPGQEQVAGGEAQPG [L6N] yielded a protein stability index of 5.71. For NIVEYMIQEQPGQEQVAGGEAQPG [L6M], the protein stability index was 4.5. NIVEYGIQEQPGQEQVAGGEAQPG [L6G] gave a protein stability index of 5.51. In the case of NIVEYIIQEQPGQEQVAGGEAQPG [L6I], the protein stability index is reported as 4.63. Work on NIVEYFIQEQPGQEQVAGGEAQPG [L6F] yielded a protein stability index of 4.71. NIVEYPIQEQPGQEQVAGGEAQPG [L6P] showed a protein stability index of 5.7. In the case of NIVEYAIQEQPGQEQVAGGEAQPG [L6A], the protein stability index is reported as 5.36. For NIVEYQIQEQPGQEQVAGGEAQPG [L6Q], the protein stability index was 5.35. In the case of NIVEYYIQEQPGQEQVAGGEAQPG [L6Y], the protein stability index is reported as 5.11. Variant NIVEYLEQEQPGQEQVAGGEAQPG [I7E] has a protein stability index of 5.3. NIVEYLDQEQPGQEQVAGGEAQPG [I7D] showed a protein stability index of 5.39. For NIVEYLMQEQPGQEQVAGGEAQPG [I7M], the protein stability index was 4.25. For NIVEYLAQEQPGQEQVAGGEAQPG [I7A], the protein stability index was 5.14. In the case of NIVEYLFQEQPGQEQVAGGEAQPG [I7F], the protein stability index is reported as 4.14. Variant NIVEYLLQEQPGQEQVAGGEAQPG [I7L] has a protein stability index of 3.69. With NIVEYLKQEQPGQEQVAGGEAQPG [I7K] the protein stability index was 5.17. In the case of NIVEYLCQEQPGQEQVAGGEAQPG [I7C], the protein stability index is reported as 4.78. NIVEYLHQEQPGQEQVAGGEAQPG [I7H] gave a protein stability index of 4.74. With NIVEYLNQEQPGQEQVAGGEAQPG [I7N] the protein stability index was 5.3. With NIVEYLGQEQPGQEQVAGGEAQPG [I7G] the protein stability index was 4.55. NSVEYLIQEQPGQEQVAGGEAQPG [I2S] showed a protein stability index of 5.54. In the case of NQVEYLIQEQPGQEQVAGGEAQPG [I2Q], the protein stability index is reported as 5.6. NVVEYLIQEQPGQEQVAGGEAQPG [I2V] gave a protein stability index of 5.13. NRVEYLIQEQPGQEQVAGGEAQPG [I2R] gave a protein stability index of 5.59. In the case of NWVEYLIQEQPGQEQVAGGEAQPG [I2W], the protein stability index is reported as 2.59. Variant NYVEYLIQEQPGQEQVAGGEAQPG [I2Y] has a protein stability index of 4.59. Work on NTVEYLIQEQPGQEQVAGGEAQPG [I2T] yielded a protein stability index of 5.57. NIHEYLIQEQPGQEQVAGGEAQPG [V3H] gave a protein stability index of 5.06. NIDEYLIQEQPGQEQVAGGEAQPG [V3D] showed a protein stability index of 5.67. For NISEYLIQEQPGQEQVAGGEAQPG [V3S], the protein stability index was 5.49. In the case of NIREYLIQEQPGQEQVAGGEAQPG [V3R], the protein stability index is reported as 5.21. Work on NIQEYLIQEQPGQEQVAGGEAQPG [V3Q] yielded a protein stability index of 4.57. Work on NILEYLIQEQPGQEQVAGGEAQPG [V3L] yielded a protein stability index of 3.07. Variant NIIEYLIQEQPGQEQVAGGEAQPG [V3I] has a protein stability index of 3.91. Work on NIYEYLIQEQPGQEQVAGGEAQPG [V3Y] yielded a protein stability index of 4.33. In the case of NINEYLIQEQPGQEQVAGGEAQPG [V3N], the protein stability index is reported as 5.01. NIKEYLIQEQPGQEQVAGGEAQPG [V3K] showed a protein stability index of 5.05. With NIFEYLIQEQPGQEQVAGGEAQPG [V3F] the protein stability index was 4.21. Work on NITEYLIQEQPGQEQVAGGEAQPG [V3T] yielded a protein stability index of 4.81. With NICEYLIQEQPGQEQVAGGEAQPG [V3C] the protein stability index was 5.04. Work on NIEEYLIQEQPGQEQVAGGEAQPG [V3E] yielded a protein stability index of 5.36. NIGEYLIQEQPGQEQVAGGEAQPG [V3G] gave a protein stability index of 5.37. Variant NIMEYLIQEQPGQEQVAGGEAQPG [V3M] has a protein stability index of 4.2. Variant NIAEYLIQEQPGQEQVAGGEAQPG [V3A] has a protein stability index of 5.13. For NIWEYLIQEQPGQEQVAGGEAQPG [V3W], the protein stability index was 3.67. Variant NIPEYLIQEQPGQEQVAGGEAQPG [V3P] has a protein stability index of 5.74. NIVEFLIQEQPGQEQVAGGEAQPG [Y5F] showed a protein stability index of 3.56. NIVEILIQEQPGQEQVAGGEAQPG [Y5I] gave a protein stability index of 3.98. In the case of NIVEKLIQEQPGQEQVAGGEAQPG [Y5K], the protein stability index is reported as 5.31. For NIVEWLIQEQPGQEQVAGGEAQPG [Y5W], the protein stability index was 2.18. In the case of NIVEPLIQEQPGQEQVAGGEAQPG [Y5P], the protein stability index is reported as 5.82. With NIVEELIQEQPGQEQVAGGEAQPG [Y5E] the protein stability index was 5.66. NIVEQLIQEQPGQEQVAGGEAQPG [Y5Q] showed a protein stability index of 5.08. NIVERLIQEQPGQEQVAGGEAQPG [Y5R] showed a protein stability index of 4.54. Work on NIVEGLIQEQPGQEQVAGGEAQPG [Y5G] yielded a protein stability index of 5.7. For NIVEMLIQEQPGQEQVAGGEAQPG [Y5M], the protein stability index was 3.95. NIVETLIQEQPGQEQVAGGEAQPG [Y5T] showed a protein stability index of 5.44. Variant NIVEDLIQEQPGQEQVAGGEAQPG [Y5D] has a protein stability index of 5.67. NIVELLIQEQPGQEQVAGGEAQPG [Y5L] gave a protein stability index of 4.03. NIVEALIQEQPGQEQVAGGEAQPG [Y5A] gave a protein stability index of 5.18. NIVENLIQEQPGQEQVAGGEAQPG [Y5N] gave a protein stability index of 4.83. In the case of NIVEHLIQEQPGQEQVAGGEAQPG [Y5H], the protein stability index is reported as 4.93. In the case of NIVESLIQEQPGQEQVAGGEAQPG [Y5S], the protein stability index is reported as 4.83. Work on NIVECLIQEQPGQEQVAGGEAQPG [Y5C] yielded a protein stability index of 4.74. NIVEVLIQEQPGQEQVAGGEAQPG [Y5V] showed a protein stability index of 4.49.
